Data on nine molecules can be found in patent US20150203577A1 (Chugai, published 2015).

The target of assay [1] is T1, mouse FcγRII extracellular domain, C-terminally His-tagged (mouse, UniProt P08101 30-210).
T1 construct: the whole entry is named; also called mFcγRII; mFcgRII
T1 sequence: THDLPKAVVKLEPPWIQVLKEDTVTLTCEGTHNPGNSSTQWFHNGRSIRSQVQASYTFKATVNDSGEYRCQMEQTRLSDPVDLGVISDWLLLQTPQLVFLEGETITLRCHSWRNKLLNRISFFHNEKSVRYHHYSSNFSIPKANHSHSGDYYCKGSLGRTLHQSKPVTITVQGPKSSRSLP
Description: SPR Biacore T200, KD ratio.

Assay [2] concerns the target T2, mouse FcγRIII extracellular domain, C-terminally His-tagged (mouse, UniProt P08508 31-215).
T2 construct: the whole entry is named; also called mFcγRIII; mFcgRIII
T2 chain: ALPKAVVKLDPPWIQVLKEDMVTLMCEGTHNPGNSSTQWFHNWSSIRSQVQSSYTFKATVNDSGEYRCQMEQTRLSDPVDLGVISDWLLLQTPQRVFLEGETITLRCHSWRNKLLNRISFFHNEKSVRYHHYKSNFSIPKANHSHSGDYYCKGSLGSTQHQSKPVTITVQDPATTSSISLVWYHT
Description: SPR Biacore T200, KD ratio. Background: SPR reads the build-up and loss of mass on a sensor chip optically.

In assay [3] the target is T3, mouse FcγRII extracellular domain with C-terminal His tag (mouse, UniProt P08101 30-210).
T3 construct: Made on the basis of NCBI NP-034317.1; also called mFcγRII; mFcgRII
T3 sequence: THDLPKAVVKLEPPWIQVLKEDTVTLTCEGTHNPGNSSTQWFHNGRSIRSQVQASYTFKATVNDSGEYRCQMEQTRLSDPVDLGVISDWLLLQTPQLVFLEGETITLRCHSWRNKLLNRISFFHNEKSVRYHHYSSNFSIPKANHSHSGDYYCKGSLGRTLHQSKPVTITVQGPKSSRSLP
Description: SPR Biacore T200. How it is done: (§1) Each altered antibody was analyzed for its interaction with each Fcγ receptor prepared above using Biacore T100 (GE Healthcare Japan Corp.), Biacore T200 (GE Healthcare Japan Corp.), Biacore A100, or Biacore 4000. The running buffer used was HBS-EP+ (GE Healthcare Japan Corp.). The assay temperature was set to 25° C. The sensor chips used were chips prepared by immobilizing Protein L (ACTIGEN or BioVision) onto Series S Sensor Chip CM5 (GE Healthcare Japan Corp.) or Series S Sensor Chip CM4 (GE Healthcare Japan Corp.) by the amine coupling method.
(§2) In order to calculate the KD value of each altered antibody for FcγR, kinetic analysis was conducted according to the following method: first, the antibody of interest was captured onto any of these chips and allowed to interact with mFcγR diluted with a running buffer. For the obtained sensorgram, the assay results were globally fit into the 1:1 Langmuir binding model using Biacore Evaluation Software to calculate an association rate constant ka (L/mol/s) and a dissociation rate constant kd (1/s). From these values, the dissociation constant KD (mol/L) was calculated.

The target in assay [4] is T4, mouse FcγRIII extracellular domain with C-terminal His tag (mouse, UniProt P08508 31-215).
T4 construct: Made on the basis of NCBI NP-034318.2; also called mFcγRIII; mFcgRIII
T4 chain: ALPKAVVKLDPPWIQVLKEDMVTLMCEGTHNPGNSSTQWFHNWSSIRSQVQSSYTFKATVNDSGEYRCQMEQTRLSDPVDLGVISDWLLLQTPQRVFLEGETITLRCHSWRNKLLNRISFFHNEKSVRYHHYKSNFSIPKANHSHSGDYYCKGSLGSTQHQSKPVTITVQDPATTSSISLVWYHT
Description: SPR Biacore T200. How it is done: as §1, §2

B1: H237-MB714/MRAL-k0 (antibody, mouse IgG1, kappa)
heavy: QVQLQESGPGLVKPSETLSLTCAVSGHSISHDHAWSWVRQPPGEGLEWIGFISYSGITNYNPSLQGRVTISRDNSKNTLYLQMNSLRAEDTAVYYCARSLARTTAMDYWGEGTLVTVSSAKTTPPSVYPLAPGSAAQTNSMVTLGCLVKGYFPEPVTVTWNSGSLSSGVHTFPAVLQSDLYTLSSSVTVPSSTWPSETVTCNVAHPASSTKVDKKIVPRDCGCKPCICEPNEVEGVFIFPPKPKDVLTITLTPKVTCVVVDISKDDPEVQFSWFVDDVEVHTAQTQPREEQFNSTFRSVSELPIMHQDWLNGKEFKCRVNSAAFPAPIEKTISKTKGRPKAPQVYTIPPPKEQMAKDKVSLTCMITDFFPEDITVEWQWNGQPAENYKNTQPIMDTDGSYFVYSKLNVQKSNWEAGNTFTCSVLHEGLHNHHTEKSLSHSPGK
light: not shown
notes: copies: 2 + 2
For B1, the “relative mFcγRII-binding activity (mIgG1 = 1)” value in assay [1] came out at 14.2 fold. Besides, the “relative mFcγRIII-binding activity (mIgG1 = 1)” value in assay [2] worked out at 1.61 fold.

B2: H237-MB717/MRAL-k0 (antibody, mouse IgG1, kappa)
heavy: QVQLQESGPGLVKPSETLSLTCAVSGHSISHDHAWSWVRQPPGEGLEWIGFISYSGITNYNPSLQGRVTISRDNSKNTLYLQMNSLRAEDTAVYYCARSLARTTAMDYWGEGTLVTVSSAKTTPPSVYPLAPGSAAQTNSMVTLGCLVKGYFPEPVTVTWNSGSLSSGVHTFPAVLQSDLYTLSSSVTVPSSTWPSETVTCNVAHPASSTKVDKKIVPRDCGCKPCICEPNEVEPVFIFPPKPKDVLTITLTPKVTCVVVDISKDDPEVQFSWFVDDVEVHTAQTQPREEQFNSTFRSVSELPIMHQDWLNGKEFKCRVNSAAFPAPIEKTISKTKGRPKAPQVYTIPPPKEQMAKDKVSLTCMITDFFPEDITVEWQWNGQPAENYKNTQPIMDTDGSYFVYSKLNVQKSNWEAGNTFTCSVLHEGLHNHHTEKSLSHSPGK
light: not shown
notes: copies: 2 + 2
Consider B2, for which, in assay [1], the “relative mFcγRII-binding activity (mIgG1 = 1)” value is 0.41 fold. Moreover, in assay [2], the “relative mFcγRIII-binding activity (mIgG1 = 1)” value worked out at 0.03 fold.

B3: H237-MB718/MRAL-k0 (antibody, mouse IgG1, kappa)
heavy: QVQLQESGPGLVKPSETLSLTCAVSGHSISHDHAWSWVRQPPGEGLEWIGFISYSGITNYNPSLQGRVTISRDNSKNTLYLQMNSLRAEDTAVYYCARSLARTTAMDYWGEGTLVTVSSAKTTPPSVYPLAPGSAAQTNSMVTLGCLVKGYFPEPVTVTWNSGSLSSGVHTFPAVLQSDLYTLSSSVTVPSSTWPSETVTCNVAHPASSTKVDKKIVPRDCGCKPCICEPNEVETVFIFPPKPKDVLTITLTPKVTCVVVDISKDDPEVQFSWFVDDVEVHTAQTQPREEQFNSTFRSVSELPIMHQDWLNGKEFKCRVNSAAFPAPIEKTISKTKGRPKAPQVYTIPPPKEQMAKDKVSLTCMITDFFPEDITVEWQWNGQPAENYKNTQPIMDTDGSYFVYSKLNVQKSNWEAGNTFTCSVLHEGLHNHHTEKSLSHSPGK
light: not shown
notes: copies: 2 + 2
As to B3, the “relative mFcγRII-binding activity (mIgG1 = 1)” value in assay [1] came to 0.85 fold. In addition, the “relative mFcγRIII-binding activity (mIgG1 = 1)” value in assay [2] stood at 0.05 fold.

B4: H237-MB468/MRAL-k0 (antibody, mouse IgG1, kappa)
heavy: QVQLQESGPGLVKPSETLSLTCAVSGHSISHDHAWSWVRQPPGEGLEWIGFISYSGITNYNPSLQGRVTISRDNSKNTLYLQMNSLRAEDTAVYYCARSLARTTAMDYWGEGTLVTVSSAKTTPPSVYPLAPGSAAQTNSMVTLGCLVKGYFPEPVTVTWNSGSLSSGVHTFPAVLQSDLYTLSSSVTVPSSTWPSETVTCNVAHPASSTKVDKKIVPRDCGCKPCICEAYEVEEVFIFPPKPKDVLTITLTPKVTCVVVDISKDDPEVQFSWFVDDVEVHTAQTQPREEQFNSTFRSVSELPIMHQDWLNGKEFKCRVNSAAFPAPIEKTISKTKGRPKAPQVYTIPPPKEQMAKDKVSLTCMITDFFPEDITVEWQWNGQPAENYKNTQPIMDTDGSYFVYSKLNVQKSNWEAGNTFTCSVLHEGLHNHHTEKSLSHSPGK
light: not shown
notes: copies: 2 + 2
For the molecule B4, the “relative mFcγRII-binding activity (mIgG1 = 1)” value in assay [3] worked out at 63.1. Also, in assay [4], the “relative mFcγRIII-binding activity (mIgG1 = 1)” value was found to be 2.8.

B5: H237-MB469/MRAL-k0 (antibody, mouse IgG1, kappa)
heavy: QVQLQESGPGLVKPSETLSLTCAVSGHSISHDHAWSWVRQPPGEGLEWIGFISYSGITNYNPSLQGRVTISRDNSKNTLYLQMNSLRAEDTAVYYCARSLARTTAMDYWGEGTLVTVSSAKTTPPSVYPLAPGSAAQTNSMVTLGCLVKGYFPEPVTVTWNSGSLSSGVHTFPAVLQSDLYTLSSSVTVPSSTWPSETVTCNVAHPASSTKVDKKIVPRDCGCKPCICEDYEVEEVFIFPPKPKDVLTITLTPKVTCVVVDISKDDPEVQFSWFVDDVEVHTAQTQPREEQFNSTFRSVSELPIMHQDWLNGKEFKCRVNSAAFPAPIEKTISKTKGRPKAPQVYTIPPPKEQMAKDKVSLTCMITDFFPEDITVEWQWNGQPAENYKNTQPIMDTDGSYFVYSKLNVQKSNWEAGNTFTCSVLHEGLHNHHTEKSLSHSPGK
light: not shown
notes: copies: 2 + 2
In the case of B5, the “relative mFcγRII-binding activity (mIgG1 = 1)” value in assay [3] worked out at 57.1. Moreover, in assay [4], the “relative mFcγRIII-binding activity (mIgG1 = 1)” value was found to be 2.8.

B6: H237-MB716/MRAL-k0 (antibody, mouse IgG1, kappa)
heavy: QVQLQESGPGLVKPSETLSLTCAVSGHSISHDHAWSWVRQPPGEGLEWIGFISYSGITNYNPSLQGRVTISRDNSKNTLYLQMNSLRAEDTAVYYCARSLARTTAMDYWGEGTLVTVSSAKTTPPSVYPLAPGSAAQTNSMVTLGCLVKGYFPEPVTVTWNSGSLSSGVHTFPAVLQSDLYTLSSSVTVPSSTWPSETVTCNVAHPASSTKVDKKIVPRDCGCKPCICEPNEVEIVFIFPPKPKDVLTITLTPKVTCVVVDISKDDPEVQFSWFVDDVEVHTAQTQPREEQFNSTFRSVSELPIMHQDWLNGKEFKCRVNSAAFPAPIEKTISKTKGRPKAPQVYTIPPPKEQMAKDKVSLTCMITDFFPEDITVEWQWNGQPAENYKNTQPIMDTDGSYFVYSKLNVQKSNWEAGNTFTCSVLHEGLHNHHTEKSLSHSPGK
light: not shown
notes: copies: 2 + 2
Consider B6, for which, in assay [1], the “relative mFcγRII-binding activity (mIgG1 = 1)” value came to 3.98 fold. The “relative mFcγRIII-binding activity (mIgG1 = 1)” value in assay [2] turned out to be 0.05 fold.

B7: H237-MB715/MRAL-k0 (antibody, mouse IgG1, kappa)
heavy: QVQLQESGPGLVKPSETLSLTCAVSGHSISHDHAWSWVRQPPGEGLEWIGFISYSGITNYNPSLQGRVTISRDNSKNTLYLQMNSLRAEDTAVYYCARSLARTTAMDYWGEGTLVTVSSAKTTPPSVYPLAPGSAAQTNSMVTLGCLVKGYFPEPVTVTWNSGSLSSGVHTFPAVLQSDLYTLSSSVTVPSSTWPSETVTCNVAHPASSTKVDKKIVPRDCGCKPCICEPNEVEVVFIFPPKPKDVLTITLTPKVTCVVVDISKDDPEVQFSWFVDDVEVHTAQTQPREEQFNSTFRSVSELPIMHQDWLNGKEFKCRVNSAAFPAPIEKTISKTKGRPKAPQVYTIPPPKEQMAKDKVSLTCMITDFFPEDITVEWQWNGQPAENYKNTQPIMDTDGSYFVYSKLNVQKSNWEAGNTFTCSVLHEGLHNHHTEKSLSHSPGK
light: not shown
notes: copies: 2 + 2
B7: the “relative mFcγRII-binding activity (mIgG1 = 1)” value in assay [1] was 0.89 fold. Further, the “relative mFcγRIII-binding activity (mIgG1 = 1)” value in assay [2] was determined as 0.02 fold.

B8: H237-MB793/MRAL-k0 (antibody, mouse IgG1, kappa)
heavy: QVQLQESGPGLVKPSETLSLTCAVSGHSISHDHAWSWVRQPPGEGLEWIGFISYSGITNYNPSLQGRVTISRDNSKNTLYLQMNSLRAEDTAVYYCARSLARTTAMDYWGEGTLVTVSSAKTTPPSVYPLAPGSAAQTNSMVTLGCLVKGYFPEPVTVTWNSGSLSSGVHTFPAVLQSDLYTLSSSVTVPSSTWPSETVTCNVAHPASSTKVDKKIVPRDCGCKPCICQPNEVEIVFIFPPKPKDVLTITLTPKVTCVVVDISKDDPEVQFSWFVDDVEVHTAQTQPREEQFNSTFRSVSELPIMHQDWLNGKEFKCRVNSAAFPAPIEKTISKTKGRPKAPQVYTIPPPKEQMAKDKVSLTCMITDFFPEDITVEWQWNGQPAENYKNTQPIMDTDGSYFVYSKLNVQKSNWEAGNTFTCSVLHEGLHNHHTEKSLSHSPGK
light: not shown
notes: copies: 2 + 2
For the molecule B8, the “relative mFcγRII-binding activity (mIgG1 = 1)” value in assay [1] came to 1.17 fold. Moreover, the “relative mFcγRIII-binding activity (mIgG1 = 1)” value in assay [2] was found to be 0.05 fold.

B9: H237-MB719/MRAL-k0 (antibody, mouse IgG1, kappa)
heavy: QVQLQESGPGLVKPSETLSLTCAVSGHSISHDHAWSWVRQPPGEGLEWIGFISYSGITNYNPSLQGRVTISRDNSKNTLYLQMNSLRAEDTAVYYCARSLARTTAMDYWGEGTLVTVSSAKTTPPSVYPLAPGSAAQTNSMVTLGCLVKGYFPEPVTVTWNSGSLSSGVHTFPAVLQSDLYTLSSSVTVPSSTWPSETVTCNVAHPASSTKVDKKIVPRDCGCKPCICEPNEVEQVFIFPPKPKDVLTITLTPKVTCVVVDISKDDPEVQFSWFVDDVEVHTAQTQPREEQFNSTFRSVSELPIMHQDWLNGKEFKCRVNSAAFPAPIEKTISKTKGRPKAPQVYTIPPPKEQMAKDKVSLTCMITDFFPEDITVEWQWNGQPAENYKNTQPIMDTDGSYFVYSKLNVQKSNWEAGNTFTCSVLHEGLHNHHTEKSLSHSPGK
light: not shown
notes: copies: 2 + 2
Consider B9, for which the “relative mFcγRII-binding activity (mIgG1 = 1)” value in assay [1] is 70.4 fold. Also, the “relative mFcγRIII-binding activity (mIgG1 = 1)” value in assay [2] was 2.31 fold.
